# Measured values reported in patent US20250011363A1, “OPTIMIZED SHORTENED PEPTIDE THAT BINDS TO ACETYLCHOLINE RECEPTOR, AND USE THEREOF” (SKINMED CO., LTD., priority 2021, published 2025).
# Biological target: acetylcholine receptor (Homo sapiens, UniProt P02708)
# Test: SPR binding affinity (RU) of optimized 5mer/6mer/7mer peptides, Examples 6-7
# Conditions: SPR, peptides at 10 μM; 6mer-2 Bottom sequence
# Description: Based on the frequencies of occurrence of the top 7 amino acids from Table 7 in Example 5, 600 peptides comprising these amino acids (top combinations) and those comprising the 13 less frequently occurring amino acids (bottom combinations) were synthesized for each series of 5mer, 6mer-1, and 6mer-2. The binding affinity of each sequence for the acetylcholine receptor was measured using Surface Plasmon Resonance (SPR) analysis method. The peptides were tested at a concentration of 10 μM. Additionally, the average binding affinities of the top and bottom combinations in each series are depicted in FIGS. 5-7.
# Representative peptides identified in Example 6, two in each library, including 5mers (73, 311) and 6mers-1 (43, 210) and 6mers-2 (136, 233), were compared with the pre-optimized 6mer, 5mer-ND, and Synake.
# Chain of acetylcholine receptor (P02708 21-457): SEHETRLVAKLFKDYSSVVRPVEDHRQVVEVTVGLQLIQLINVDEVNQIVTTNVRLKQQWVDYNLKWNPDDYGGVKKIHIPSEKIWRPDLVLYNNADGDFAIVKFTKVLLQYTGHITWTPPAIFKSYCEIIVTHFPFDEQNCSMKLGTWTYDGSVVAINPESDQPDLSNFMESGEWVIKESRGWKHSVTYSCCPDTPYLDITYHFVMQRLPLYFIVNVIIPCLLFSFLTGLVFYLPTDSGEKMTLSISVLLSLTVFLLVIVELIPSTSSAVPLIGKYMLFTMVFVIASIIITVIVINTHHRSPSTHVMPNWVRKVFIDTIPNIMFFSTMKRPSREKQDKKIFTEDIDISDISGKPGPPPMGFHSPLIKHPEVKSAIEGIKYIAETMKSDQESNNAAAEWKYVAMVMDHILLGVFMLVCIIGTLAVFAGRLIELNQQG
row,Substance,Binding affinity
1,6mer-2-1110 (RMTKKK),37 Ru
2,6mer-2-1091 (RFDNKR),31 Ru
3,6mer-2-1196 (RESKKR),39 Ru
4,6mer-2-1156 (KMNARR),35 Ru
5,6mer-2-1028 (KPEHRR),41 Ru
6,6mer-2-1037 (KIHWKK),26 Ru
7,6mer-2-1030 (RAPFKK),28 Ru
8,6mer-2-1039 (RNHFRK),26 Ru
9,6mer-2-1129 (RITGKR),42 Ru
10,6mer-2-1006 (RATMRR),30 Ru
11,6mer-2-1093 (KTTDKK),43 Ru
12,6mer-2-1187 (RTADRK),36 Ru
13,6mer-2-1173 (KCCNKK),38 Ru
14,6mer-2-1087 (KEEMRR),21 Ru

# Same assay, conditions: SPR, peptides tested at 10 μM; 5mer Top sequence
row,Substance,Binding affinity
1,5mer-170 (RLICK),62 Ru
2,5mer-394 (KRRRK),66 Ru
3,5mer-20 (RGRYK),78 Ru
4,5mer-461 (KQLLK),74 Ru
5,5mer-392 (RSRLR),87 Ru
6,5mer-347 (KRICR),78 Ru
7,5mer-133 (KGQRK),84 Ru
8,5mer-417 (KWLQK),65 Ru
9,5mer-211 (RLYYR),73 Ru
10,5mer-62 (KQLTK),70 Ru
11,5mer-163 (KSLCK),61 Ru
12,5mer-416 (KLYLR),67 Ru
13,5mer-156 (KGLRK),85 Ru
14,5mer-127 (RWVTK),86 Ru
15,5mer-39 (KQVSR),67 Ru
16,5mer-383 (RWQRK),56 Ru
17,5mer-61 (RLILK),66 Ru
18,5mer-69 (RSRSR),50 Ru

# Same assay, conditions: SPR, peptides tested at 10 μM; 5mer Top sequence (top combinations)
row,Substance,Binding affinity
1,5mer-261 (RRVLR),59 Ru
2,5mer-564 (RSRYR),74 Ru
3,5mer-524 (RRICR),83 Ru
4,5mer-526 (KQFSR),54 Ru
5,5mer-291 (RWFTR),72 Ru
6,5mer-521 (KRFRK),78 Ru
7,5mer-595 (KWQQR),58 Ru
8,5mer-587 (RVITR),66 Ru
9,5mer-225 (KRQQK),51 Ru

# Same assay, conditions: SPR, peptides tested at 10 μM; 6mer-1 Bottom sequence (Table 11)
row,Substance,Binding affinity
1,6mer-1-844 (KKPMNR),28 Ru
2,6mer-1-840 (RKICNK),12 Ru
3,6mer-1-893 (RRIPHR),22 Ru
4,6mer-1-949 (RKEMPR),37 Ru
5,6mer-1-875 (KKTNGR),33 Ru

# Same assay, conditions: SPR, peptides tested at 10 μM; 6mer-1 Top sequence
row,Substance,Binding affinity
1,6mer-1-524 (KKGRQK),148 Ru
2,6mer-1-590 (RKGVTK),142 Ru
3,6mer-1-543 (RRSVCK),145 Ru
4,6mer-1-1405 (KKVQTR),148 Ru
5,6mer-1-570 (RKRLRK),122 Ru
6,6mer-1-580 (KKSLQK),121 Ru

# Same assay, conditions: SPR, peptides tested at 10 μM; 6mer-1 Top sequence (top combinations)
row,Substance,Binding affinity
1,6mer-1-85 (RKRQCK),121 Ru
2,6mer-1-92 (RRWRLK),153 Ru
3,6mer-1-15 (KRQICK),123 Ru
4,6mer-1-56 (RRGIQR),137 Ru
5,6mer-1-161 (KRRYCK),139 Ru
6,6mer-1-152 (KRVIRR),154 Ru
7,6mer-1-50 (KKVRTR),139 Ru
8,6mer-1-23 (KRSVSR),153 Ru
9,6mer-1-91 (RKQQCK),131 Ru
10,6mer-1-172 (RRLIRK),153 Ru
11,6mer-1-58 (RKSVTR),126 Ru

# Same assay, conditions: SPR; XRRGVRR-7mer and RRGVRRX-7mer
row,Substance,"Binding affinity, values relative to the RRGVRR sequence"
1,3668 (RRGVRRM) [compound 3668],127

# Same assay, conditions: SPR; peptides tested at 10 μM; 5mer Bottom sequence
row,Substance,Binding affinity
1,5mer-1174 (KYSGK),25 Ru
2,5mer-1135 (RHTAR),17 Ru
3,5mer-845 (RYEDR),15 Ru
4,5mer-861 (KTKIR),20 Ru
5,5mer-854 (RNTER),21 Ru
6,5mer-1114 (RKTFR),28 Ru
7,5mer-869 (KKHPK),31 Ru
8,5mer-852 (KDSMK),22 Ru
9,5mer-1197 (KDDAR),24 Ru
